Data set [1] has as its target T1, IolQ-His6 (DegA) (Bacillus subtilis 168) (UniProt P37947).
T1 sequence: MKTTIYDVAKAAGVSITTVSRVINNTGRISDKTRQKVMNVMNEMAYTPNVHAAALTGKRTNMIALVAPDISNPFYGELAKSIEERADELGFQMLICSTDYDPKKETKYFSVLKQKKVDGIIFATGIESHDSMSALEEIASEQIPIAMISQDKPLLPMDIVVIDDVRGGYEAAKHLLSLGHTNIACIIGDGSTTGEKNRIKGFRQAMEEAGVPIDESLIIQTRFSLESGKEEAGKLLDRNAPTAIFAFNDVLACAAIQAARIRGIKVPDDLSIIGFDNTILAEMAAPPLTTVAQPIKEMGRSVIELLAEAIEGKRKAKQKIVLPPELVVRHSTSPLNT
Put plainly: EMSA. The settings on record: 10 mM Tris-HCl pH 8.0, 1 mM DTT, 10 mM KCl, 5 mM MgCl2, 10% glycerol, 5 ug/ml poly d(I-C), 50 ug/ml BSA, 37 C, 30 min; DNA 0.155 pmol in 0.02 ml (EMSA) or ….

Data set [2] concerns the target T1, IolQ-His6 (DegA) (Bacillus subtilis 168). Nature of the data set: DNase I footprinting. The note with it: 10 mM Tris-HCl pH 8.0, 1 mM DTT, 10 mM KCl, 5 mM MgCl2, 10% glycerol, 5 ug/ml poly d(I-C), 50 ug/ml BSA, 37 C, 30 min; DNA 0.155 pmol in 0.02 ml (EMSA) or ….

Regarding “ATGAGCGGGTTTTTTCATTATGACAGTTGAAGCCAAAAAAACATATTGCGTGTAAACCAAAGGCGGTGTAAAATATAACCATCTTTTGAGAAAGCGCTTGCGCAAAATGGCAGAGCGGATAGAACCGCTGTTTTTTTAGCTGTTAAGAGAAAACGCTTTCTCAAAGCGAGCCCGAAATGAGATAAAGGAGAGGATGGGAC (double strand) [iolX promoter 200 bp]”, the binding result in data set [1] is “binds”.

As for “GAGCTTGTAGTCAGACATTCTACATCACCGCTCAACACATGAGCCCGCTAATGAGCGGGTTTTTTCATTATGACAGTTGAAGCCAAAAAAACATATTGCGTGTAAACCAAAGGCGGTGTAAAATATAACCATCTTTTGAGAAAGCGCTTGCGCAAAATGGCAGAGCGGATAGAACCGCTGTTTTTTTAGCTGTTAAGAGAAAACGCTTTCTCAAAGCGAGCCCGAAATGAGATAAAGGAGAGGATGGGACGTGGAACATCAAGTAAGATGTGCAGTATTGGGATTAGGAAGGCTCGGTTA (double strand) [iolX promoter 300 bp footprint probe, high affinity region]”, the binding entry in data set [2] was “binds”.

The record behind these values is PMC5504672.
